In paper PMC3197142, “Direct Identification of Insulator Components by Insertional Chromatin Immunoprecipitation” (PLoS ONE, 2011):

T1: GST-Matrin-3 (human, UniProt P43243-1 1-847)
T1 construct: human Matrin-3, cDNA GenBank NM_199189, inserted downstream of the GST gene in pGEX-6P-1; also called GST-fused Matrin-3; pGEX-Matrin-3; source: E. coli BL21-CodonPlus(DE3)-RIPL, purified (Glutathione Sepharose 4B); not shown: GST, N-terminal, kept
T1 sequence (looked up): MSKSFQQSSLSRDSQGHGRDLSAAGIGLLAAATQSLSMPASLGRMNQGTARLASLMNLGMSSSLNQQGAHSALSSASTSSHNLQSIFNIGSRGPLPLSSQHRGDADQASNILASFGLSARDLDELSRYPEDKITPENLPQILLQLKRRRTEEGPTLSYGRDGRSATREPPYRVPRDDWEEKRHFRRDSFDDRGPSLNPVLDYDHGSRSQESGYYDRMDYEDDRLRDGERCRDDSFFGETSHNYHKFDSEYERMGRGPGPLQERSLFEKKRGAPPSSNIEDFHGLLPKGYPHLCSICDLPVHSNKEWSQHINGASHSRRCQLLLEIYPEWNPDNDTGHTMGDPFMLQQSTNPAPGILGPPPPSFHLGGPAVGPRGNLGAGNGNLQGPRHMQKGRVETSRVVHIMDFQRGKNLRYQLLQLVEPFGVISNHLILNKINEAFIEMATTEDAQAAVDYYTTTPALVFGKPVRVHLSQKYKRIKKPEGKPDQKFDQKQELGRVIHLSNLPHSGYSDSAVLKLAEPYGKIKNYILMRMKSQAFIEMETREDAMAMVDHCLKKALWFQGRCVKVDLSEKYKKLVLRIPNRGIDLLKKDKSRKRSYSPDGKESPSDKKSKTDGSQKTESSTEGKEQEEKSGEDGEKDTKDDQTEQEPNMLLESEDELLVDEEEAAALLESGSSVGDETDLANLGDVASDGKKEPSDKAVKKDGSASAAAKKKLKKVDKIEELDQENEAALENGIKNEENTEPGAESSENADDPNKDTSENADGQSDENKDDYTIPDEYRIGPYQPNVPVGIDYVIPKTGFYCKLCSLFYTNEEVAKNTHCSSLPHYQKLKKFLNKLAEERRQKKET


Biological target: T1, GST-Matrin-3
Experiment: pull-down; purified GST-Matrin-3 (50 ng) incubated with purified MBP-fused proteins (50 ng) in Interaction Buffer (20 mM Tris pH 8.0, 137 mM NaCl, 1.5 mM MgCl2, 1 mM EGTA, 0.1% Triton X-100, 10% glycerol), 1.5 h at 4°C; captured on Glutathione Sepharose 4B; immunoblot with anti-MBP Ab
Settings: both partners purified

binding result	Binder
binds	MBP-p68 (natural protein, human, UniProt P17844-1 1-614, looked up, human p68 (DDX5), cDNA GenBank NM_004396, inserted downstream of the MBP gene in pMAL-x5c; also called p68/DDX5; source: E. coli BL21-CodonPlus(DE3)-RIPL, purified (Amylose resin); not shown: MBP, N-terminal, kept) MSGYSSDRDRGRDRGFGAPRFGGSRAGPLSGKKFGNPGEKLVKKKWNLDELPKFEKNFYQEHPDLARRTAQEVETYRRSKEITVRGHNCPKPVLNFYEANFPANVMDVIARQNFTEPTAIQAQGWPVALSGLDMVGVAQTGSGKTLSYLLPAIVHINHQPFLERGDGPICLVLAPTRELAQQVQQVAAEYCRACRLKSTCIYGGAPKGPQIRDLERGVEICIATPGRLIDFLECGKTNLRRTTYLVLDEADRMLDMGFEPQIRKIVDQIRPDRQTLMWSATWPKEVRQLAEDFLKDYIHINIGALELSANHNILQIVDVCHDVEKDEKLIRLMEEIMSEKENKTIVFVETKRRCDELTRKMRRDGWPAMGIHGDKSQQERDWVLNEFKHGKAPILIATDVASRGLDVEDVKFVINYDYPNSSEDYIHRIGRTARSTKTGTAYTFFTPNNIKQVSDLISVLREANQAINPKLLQLVEDRGSGRSRGRGGMKDDRRDRYSAGKRGGFNTFRDRENYDRGYSSLLKRDFGAKTQNGVYSAANYTNGSFGSNFVSAGIQTSFRTGNPTGTYQNGYDSTQQYGSNVPNMHNGMNQQAYAYPATAAAPMIGYPMPTGYSQ
binds	MBP-CTCF (natural protein, human, UniProt P49711-1 1-727, looked up, source: E. coli BL21-CodonPlus(DE3)-RIPL, purified (Amylose resin); not shown: MBP, N-terminal, kept) MEGDAVEAIVEESETFIKGKERKTYQRRREGGQEEDACHLPQNQTDGGEVVQDVNSSVQMVMMEQLDPTLLQMKTEVMEGTVAPEAEAAVDDTQIITLQVVNMEEQPINIGELQLVQVPVPVTVPVATTSVEELQGAYENEVSKEGLAESEPMICHTLPLPEGFQVVKVGANGEVETLEQGELPPQEDPSWQKDPDYQPPAKKTKKTKKSKLRYTEEGKDVDVSVYDFEEEQQEGLLSEVNAEKVVGNMKPPKPTKIKKKGVKKTFQCELCSYTCPRRSNLDRHMKSHTDERPHKCHLCGRAFRTVTLLRNHLNTHTGTRPHKCPDCDMAFVTSGELVRHRRYKHTHEKPFKCSMCDYASVEVSKLKRHIRSHTGERPFQCSLCSYASRDTYKLKRHMRTHSGEKPYECYICHARFTQSGTMKMHILQKHTENVAKFHCPHCDTVIARKSDLGVHLRKQHSYIEQGKKCRYCDAVFHERYALIQHQKSHKNEKRFKCDQCDYACRQERHMIMHKRTHTGEKPYACSHCDKTFRQKQLLDMHFKRYHDPNFVPAAFVCSKCGKTFTRRNTMARHADNCAGPDGVEGENGGETKKSKRGRKRKMRSKKEDSSDSENAEPDLDDNEDEEEPAVEIEPEPEPQPVTPAPPPAKKRRGRPPGRTNQPKQNQPTAIIQVEDQNTGAIENIIVEVKKEPDAEPAEGEEEEAQPAATDAPNGDLTPEMILSMMDR
